Molecular target: β subunit of Roseobacter denitrificans propionyl-coenzyme A carboxylase (Roseobacter denitrificans)
Assay: crystal structure

stoichiometry N: 6
Substance: β subunit of Roseobacter denitrificans propionyl-coenzyme A carboxylase

— paper PMC2925307
